Experimental data: article PMC8153946, “Substrate Selectivity of Coumarin Derivatives by Human CYP1 Enzymes: In Vitro Enzyme Kinetics and In Silico Modeling” (ACS Omega, 2021)
Marks after values point to notes of the source that are not given here.

How the values were obtained:
Assay type in all cases: biochemical, human
[1] = substrate: COc1cccc(-c2cc3cc(OC)ccc3oc2=O)c1; assay: Michaelis–Menten kinetics of oxidation to fluorescent 7-hydroxy metabolite by recombinant CYP1A2; details: other: recombinant CYP1A2, 100 mM Tris-HCl pH 7.4, 37 °C, 95% confidence interval in brackets
Method: (§1) Baculovirus-insect cell-expressed human CYP1A1, CYP1A2, CYP1B1, CYP2A6, CYP2B6, CYP2C8, CYP2C9, CYP2C19, CYP2D6, CYP2E1, CYP3A4, CYP3A5, and CYP3A7 were purchased from BD Biosciences Discovery Labware (Woburn, MA, USA) and used according to the manufacturer’s instructions.
(§2) The kinetic assays were carried out in 100 μL volume containing 100 mM Tris-HCl buffer pH 7.4, 0–40 μM coumarin derivative or 0–10 μM 7-ethoxyresorufin, 1–25 nM recombinant CYP or 0–0.1 g/L microsomal protein, and 20% NADPH regenerating system. Incubations took place at 37 °C in 96-multiwell plates; the fluorescence was measured with a Victor[2] plate reader (PerkinElmer Life Sciences, Turku, Finland). The detailed conditions are described in the figures and tables. The reaction was started by adding NADPH, and fluorescence was measured at 2 min intervals for 40 min using excitation at 405 nm and emission at 460 nm for oxidation of coumarin derivatives[18] and excitation at 570 nm and emission at 615 nm for ethoxyresorufin or pentoxyresorufin 7-O-dealkylations. Incubations without the substrate, enzyme, or NADPH were used as blank reactions. Resorufin was used as a standard, and 3-(4-fluorophenyl)-7-hydroxycoumarin was used as the surrogate standards to calculate the amount of product formed. The linear phase of the reactions was used for calculations.
(§3) Enzyme kinetic parameters were analyzed using the nonlinear Michaelis–Menten equation v = Vmax × S/(Km + S), in which v is the rate for 7-hydroxylation of a coumarin derivative, S is its concentration, and Vmax value is the limiting rate of the reaction of 7-hydroxylation, which reached a half-maximal rate at a concentration of Km for the substrate.

[2] = substrate: COc1ccc2cc(-c3ccc(OC(F)(F)F)cc3)c(=O)oc2c1; assay: as above; details: other: recombinant CYP1A2, 100 mM Tris-HCl pH 7.4, 37 °C, 95% confidence interval in brackets
Method: as §1, §2, §3

[3] = substrate: Cc1ccc2oc(=O)c(-c3ccc(F)cc3)cc2c1; assay: as above; details: other: recombinant CYP1A2, 100 mM Tris-HCl pH 7.4, 37 °C, 95% confidence interval in brackets
Method: as §1, §2, §3

[4] = substrate: CCOc1ccc2nc3ccc(=O)cc-3oc2c1; assay: as above; details: other: recombinant CYP1A2, 100 mM Tris-HCl pH 7.4, 37 °C, 95% confidence interval in brackets
Method: as §1, §2, §3

[5] = substrate: O=c1oc2ccc(O)cc2cc1-c1cccc(O)c1; assay: as above; details: other: recombinant CYP1A2, 100 mM Tris-HCl pH 7.4, 37 °C, 95% confidence interval in brackets
Method: as §1, §2, §3

[6] = substrate: O=c1oc2ccccc2cc1-c1cccc(O)c1; assay: as above; details: other: recombinant CYP1A2, 100 mM Tris-HCl pH 7.4, 37 °C, 95% confidence interval in brackets
Method: as §1, §2, §3

[7] = substrate: COc1ccc2oc(=O)c(-c3ccc(O)c(F)c3)cc2c1; assay: as above; details: other: recombinant CYP1A2, 100 mM Tris-HCl pH 7.4, 37 °C, 95% confidence interval in brackets
Method: as §1, §2, §3

[8] = substrate: COc1ccc2oc(=O)c(-c3ccc(OC(F)(F)F)cc3)cc2c1; assay: as above; details: other: recombinant CYP1A2, 100 mM Tris-HCl pH 7.4, 37 °C, 95% confidence interval in brackets
Method: as §1, §2, §3

[9] = substrate: COc1ccc(-c2cc3cc(OC(C)=O)ccc3oc2=O)cc1; assay: as above; details: other: recombinant CYP1A2, 100 mM Tris-HCl pH 7.4, 37 °C, 95% confidence interval in brackets
Method: as §1, §2, §3

[10] = substrate: CC(=O)Oc1ccc(-c2cc3cc(Cl)ccc3oc2=O)cc1; assay: as above; details: other: recombinant CYP1A2, 100 mM Tris-HCl pH 7.4, 37 °C, 95% confidence interval in brackets
Method: as §1, §2, §3

[11] = substrate: COc1cccc(-c2cc3cc(OC)ccc3oc2=O)c1; assay: Michaelis–Menten kinetics of oxidation to fluorescent 7-hydroxy metabolite by recombinant CYP1A1; details: other: recombinant CYP1A1, 100 mM Tris-HCl pH 7.4, 37 °C, 95% confidence interval in brackets
Method: as §1, §2, §3

[12] = substrate: COc1ccc2cc(-c3ccc(OC(F)(F)F)cc3)c(=O)oc2c1; assay: as above; details: other: recombinant CYP1A1, 100 mM Tris-HCl pH 7.4, 37 °C, 95% confidence interval in brackets
Method: as §1, §2, §3

[13] = substrate: CCOc1ccc2nc3ccc(=O)cc-3oc2c1; assay: as above; details: other: recombinant CYP1A1, 100 mM Tris-HCl pH 7.4, 37 °C, 95% confidence interval in brackets
Method: as §1, §2, §3

[14] = substrate: O=c1oc2ccc(O)cc2cc1-c1cccc(O)c1; assay: as above; details: other: recombinant CYP1A1, 100 mM Tris-HCl pH 7.4, 37 °C, 95% confidence interval in brackets
Method: as §1, §2, §3

[15] = substrate: COc1ccc2oc(=O)c(-c3ccc(O)c(F)c3)cc2c1; assay: as above; details: other: recombinant CYP1A1, 100 mM Tris-HCl pH 7.4, 37 °C, 95% confidence interval in brackets
Method: as §1, §2, §3

[16] = substrate: COc1ccc2oc(=O)c(-c3ccc(OC(F)(F)F)cc3)cc2c1; assay: as above; details: other: recombinant CYP1A1, 100 mM Tris-HCl pH 7.4, 37 °C, 95% confidence interval in brackets
Method: as §1, §2, §3

[17] = substrate: COc1ccc(-c2cc3cc(OC(C)=O)ccc3oc2=O)cc1; assay: as above; details: other: recombinant CYP1A1, 100 mM Tris-HCl pH 7.4, 37 °C, 95% confidence interval in brackets
Method: as §1, §2, §3

[18] = substrate: CCCCCOc1ccc2nc3ccc(=O)cc-3oc2c1; assay: as above; details: other: recombinant CYP1A1, 100 mM Tris-HCl pH 7.4, 37 °C, 95% confidence interval in brackets
Method: as §1, §2, §3

[19] = substrate: CCOc1ccc2ccc(=O)oc2c1; assay: as above; details: other: recombinant CYP1A1, 100 mM Tris-HCl pH 7.4, 37 °C, 95% confidence interval in brackets
Method: as §1, §2, §3

[20] = substrate: CC(=O)Oc1ccc(-c2cc3cc(Cl)ccc3oc2=O)cc1; assay: as above; details: other: recombinant CYP1A1, 100 mM Tris-HCl pH 7.4, 37 °C, 95% confidence interval in brackets
Method: as §1, §2, §3

B1: human CYP1A2 (Homo sapiens) (protein)
chain: MALSQSVPFSATELLLASAIFCLVFWVLKGLRPRVPKGLKSPPEPWGWPLLGHVLTLGKNPHLALSRMSQRYGDVLQIRIGSTPVLVLSRLDTIRQALVRQGDDFKGRPDLYTSTLITDGQSLTFSTDSGPVWAARRRLAQNALNTFSIASDPASSSSCYLEEHVSKEAKALISRLQELMAGPGHFDPYNQVVVSVANVIGAMCFGQHFPESSDEMLSLVKNTHEFVETASSGNPLDFFPILRYLPNPALQRFKAFNQRFLWFLQKTVQEHYQDFDKNSVRDITGALFKHSKKGPRASGNLIPQEKIVNLVNDIFGAGFDTVTTAISWSLMYLVTKPEIQRKIQKELDTVIGRERRPRLSDRPQLPYLEAFILETFRHSSFLPFTIPHSTTRDTTLNGFYIPKKCCVFVNQWQVNHDPELWEDPSEFRPERFLTADGTAINKPLSEKMMLFGMGKRRCIGEVLAKWEIFLFLAILLQQLEFSVPPGVKVDLTPIYGLTMKHARCEHVQARLRFSIN
notes: purchased BD Biosciences Discovery Labware (Woburn, MA, USA); host or cells: baculovirus-insect cells
- Km [1]: 0.27 (0.19–0.36) μM
- kcat [1]: 8.2 (7.6–8.9) mol/(min·mol CYP)
- Km [2]: 7.9 (5.1–10.6) μM
- kcat [2]: 9.1 (7.8–10.5) mol/(min·mol CYP)
- Km [3]: 7.6 (0.59–14.6) μM
- kcat [3]: 1 (0.63–1.38) mol/(min·mol CYP)
- Km [4]: 0.56 (0.44–0.68) μM
- kcat [4]: 3.2 (2.9–3.6) mol/(min·mol CYP)
- Km [5]: 2.4 (1.8–3.1) μM
- kcat [5]: 29.8 (27.5–32.2) mol/(min·mol CYP)
- Km [6]: 47 (8–86) μM
- kcat [6]: 0.4 (0.19–0.6) mol/(min·mol CYP)
- Km [7]: 20.3 (0–53) μM
- kcat [7]: 6.0 (0–12.8) mol/(min·mol CYP)
- Km [8]: 0.96 (0.61–1.32) μM
- kcat [8]: 4.4 (4.1–4.8) mol/(min·mol CYP)
- Km [9]: 2.2 (1.6–2.8) μM
- kcat [9]: 8.7 (8–9.4) mol/(min·mol CYP)
- Km [10]: 2 (1.2–2.7) μM
- kcat [10]: 1.2 (1.1–1.4) mol/(min·mol CYP)

B2: human CYP1A1 (Homo sapiens) (protein)
chain: MLFPISMSATEFLLASVIFCLVFWVIRASRPQVPKGLKNPPGPWGWPLIGHMLTLGKNPHLALSRMSQQYGDVLQIRIGSTPVVVLSGLDTIRQALVRQGDDFKGRPDLYTFTLISNGQSMSFSPDSGPVWAARRRLAQNGLKSFSIASDPASSTSCYLEEHVSKEAEVLISTLQELMAGPGHFNPYRYVVVSVTNVICAICFGRRYDHNHQELLSLVNLNNNFGEVVGSGNPADFIPILRYLPNPSLNAFKDLNEKFYSFMQKMVKEHYKTFEKGHIRDITDSLIEHCQEKQLDENANVQLSDEKIINIVLDLFGAGFDTVTTAISWSLMYLVMNPRVQRKIQEELDTVIGRSRRPRLSDRSHLPYMEAFILETFRHSSFVPFTIPHSTTRDTSLKGFYIPKGRCVFVNQWQINHDQKLWVNPSEFLPERFLTPDGAIDKVLSEKVIIFGMGKRKCIGETIARWEVFLFLAILLQRVEFSVPLGVKVDMTPIYGLTMKHACCEHFQMQLRS
notes: as for B1
- Km [11]: 0.96 (0.4–1.52) μM
- kcat [11]: 24.2 (19.4–29) mol/(min·mol CYP)
- Km [12]: 9.7 (4.8–14.6) μM
- kcat [12]: 4.2 (3.3–5.1) mol/(min·mol CYP)
- Km [13]: 0.054 (0.035–0.075) μM
- kcat [13]: 10.3 (9.3–11.4) mol/(min·mol CYP)
- Km [14]: 2.11 (0.17–4.1) μM
- kcat [14]: 4.0 (3.0–5.0) mol/(min·mol CYP)
- Km [15]: 10.7 (2.6–18.7) ^b μM
- kcat [15]: 32 (18–46) mol/(min·mol CYP)
- Km [16]: 4.8 (2.6–6.9) μM
- kcat [16]: 12.6 (10.6–14.6) mol/(min·mol CYP)
- Km [17]: 1.04 (0.65–1.42) μM
- kcat [17]: 7.5 (7–8.1) mol/(min·mol CYP)
- Km [18]: 0.74 (0.54–0.94) μM
- kcat [18]: 1.35 (1.19–1.50) mol/(min·mol CYP)
- Km [19]: 11.9 (0–25.1) μM
- kcat [19]: 26.2 (14.5–38) mol/(min·mol CYP)
- Km [20]: 0.41 (0.26–0.55) μM
- kcat [20]: 6.5 (5.9–7.1) mol/(min·mol CYP)
